Measurements: publication PMC2702000 (PLoS Pathogens, 2009)

B1: full length SARS-CoV E protein (natural protein)
chain: MYSFVSEETGTLIVNSVLLFLAFVVFLLVTLAILTALRLCAYCCNIVNVSLVKPTVYVYSRVKNLNSSEGVPDLLV

Assays:
[1] = biological target: the molecule itself; test: solution NMR structure (inter-monomer NOEs, PRE, RDCs)
[2] = biological target: the molecule itself; test: AUC

| Protein | binding result [1] | stoichiometry N [2] |
| --- | --- | --- |
| ETGTLIVNSVLLFLAFVVFLLVTLAILTALR [ETM peptide, transmembrane domain of SARS-CoV E (residues 8-38)] | binds |  |
| EETGTLIVNSVLLFLAFVVFLLVTLAILTALRLCAY [synthetic ETM spanning residues 7-42 of SARS-CoV E] |  | 5 |
| B1 |  | 5 |
